Target: T1, N-terminal FLAG-tagged cynomolgus monkey ROBO4, cynoROBO4-1 (pCI-FLAG-cynoROBO4-1) (cynomolgus monkey, UniProt Q8WZ75 28-1007 (human entry))
T1 chain: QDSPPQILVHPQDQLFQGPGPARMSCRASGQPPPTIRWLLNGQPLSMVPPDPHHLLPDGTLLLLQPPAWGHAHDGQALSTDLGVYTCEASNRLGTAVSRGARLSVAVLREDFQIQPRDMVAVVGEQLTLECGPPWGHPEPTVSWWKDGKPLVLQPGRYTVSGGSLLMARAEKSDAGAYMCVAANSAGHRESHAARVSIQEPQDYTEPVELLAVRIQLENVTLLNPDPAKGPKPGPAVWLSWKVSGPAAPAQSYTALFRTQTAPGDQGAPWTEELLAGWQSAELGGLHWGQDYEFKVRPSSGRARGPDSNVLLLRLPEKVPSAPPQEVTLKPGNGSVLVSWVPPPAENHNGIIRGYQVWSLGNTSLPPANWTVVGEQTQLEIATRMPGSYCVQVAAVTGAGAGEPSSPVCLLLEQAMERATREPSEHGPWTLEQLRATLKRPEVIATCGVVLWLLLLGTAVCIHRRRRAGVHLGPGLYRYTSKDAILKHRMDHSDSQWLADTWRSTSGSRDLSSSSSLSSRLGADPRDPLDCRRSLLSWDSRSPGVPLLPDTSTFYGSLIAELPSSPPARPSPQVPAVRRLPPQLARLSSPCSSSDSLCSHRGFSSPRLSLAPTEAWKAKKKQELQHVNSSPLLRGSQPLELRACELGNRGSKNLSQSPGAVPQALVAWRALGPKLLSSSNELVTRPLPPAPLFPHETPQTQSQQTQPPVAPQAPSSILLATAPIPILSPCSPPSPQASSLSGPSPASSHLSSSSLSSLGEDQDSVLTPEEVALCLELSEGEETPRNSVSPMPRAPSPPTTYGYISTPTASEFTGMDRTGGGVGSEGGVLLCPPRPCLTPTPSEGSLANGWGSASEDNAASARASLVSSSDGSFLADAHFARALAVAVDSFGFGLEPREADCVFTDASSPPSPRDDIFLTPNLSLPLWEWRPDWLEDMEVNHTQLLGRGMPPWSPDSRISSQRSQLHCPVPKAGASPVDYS
Assay: flow cytometry (FC500), HEK293 cells transfected with pCI-FLAG-cynoROBO4-1, antibody at 10 µg/mL, FITC goat anti-human IgG Fc; control histogram IgG (human IgG)

binding result: binds
B1: humanized MAb1 antibody H-1143 (antibody, human IgG2, kappa, V domains shown)
VH: EVQLVESGGGLVQPGGSLRLSCAASGFTFSTYAMSWVRQAPGKGLEWVATISQGGTYTYYPDSVKGRFTISRDNAKNTLYLQMNSLRAEDTAVYYCARLIYYDYLDYWGQGTLVTVSS
VL: DIVMTQSPLSLPVTLGEPASISCRSSQSLENENKNLYLNWYLQKPGQSPQLLIYRVSNRFSGVPDRFSGSGSGTDFTLKISRVEAEDVGVYYCLQVTHVPWTFGPGTKVDIKR
notes: Human IgG2 / kappa constant regions; also called hMAb1-H2-type heavy chain + hMAb1-L2-type light chain
